Experimental data as given in US20110144317A1, “MUTANTS OF GLYCOSIDE HYDROLASES AND USES THEREOF FOR SYNTHESIZING COMPLEX OLIGOSACCHARIDES AND DISACCHARIDE INTERMEDIATES” (priority 2008, published 2011).

Tests used:
Type in all cases: biochemical
[1] = Screening of AS single mutant library for glucosylation of α-L-Rhap-OMe (HPLC); conditions: FIG. 6
Experimental: The protocol was established to enable the rapid identification of clones able to glucosylate α-L-Rhap-OMe (formula II). To obtain higher amounts of enzymes and facilitate detection of glucosylated compounds upon HPLC screening, mutants were produced in 96-DeepWell Format plates. Storage microplates containing monomutants were thawed and replicated to inoculate a starter culture in 96-well microplates containing, in each well, 150 μL LB medium supplemented with ampicillin (100 μg/mL). After growth for 24 h at 30° C. under agitation (200 rpm), plates were duplicated into 96-Deep Well plates containing, in each well, 1.1 mL LB medium supplemented with ampicillin (100 μg/mL) and IPTG (1 mM) to induce GST-AS expression. Cultures were then grown for 24 h at 30° C. under agitation (200 rpm). […]
Efficiency of the glucosylation reaction was evaluated by HPLC analysis of the acceptor reaction product synthesized when using α-L-Rhap-OMe as acceptor using a Dionex P 680 series pump, a Shodex RI 101 series refractometer, a Dionex UVD 340 UV/Vis detector and an autosampler HTC PAL. […]
For each of the 7 selected positions, 19 single mutants were generated (corresponding to each possible amino acid change). […] Both sucrose consumption and disaccharide formation were determined in order to calculate the glucosylation rate defined as the molar ratio of monoglucosylated acceptor versus/sucrose consumed.

[2] = Comparison of products synthesized by wild type and AS variant I228Y (HPAEC/HPLC); conditions: for recognition of α-L-RhapO-Me as an acceptor: purified enzyme, HPLC, FIG. 7A
Experimental: All assays were performed at 30° C. in 50 mM Tris buffer, pH=7.0.
Comparison of products synthesized by wild type and AS variant. Reactions were performed in the presence of 146 mM sucrose alone or supplemented with 146 mM acceptor. The purified wild-type or mutated GST/AS were employed at 0.5 U/mL. The reactions were stopped by heating at 95° C. for […]. The final mixture was centrifuged at 18 000 g for 5 min.
Soluble and insoluble oligosaccharides produced during the reaction were identified by HPAEC using a Dionex Carbo-Pack PA100 column at 30° C. Before analysis, the insoluble fraction was solubilised in KOH at a final total sugar concentration of 10 g/kg. Mobile phase (150 mM NaOH) was set at 1 mL/min flow rate with a sodium acetate gradient (going from 6 to 500 mM within 120 min). Detection was performed using a Dionex ED40 module with a gold working electrode and an Ag/AgCl pH reference. Note that α-L-Rhap-OMe (acceptor) and its derivatives are not oxidable products and thus are not detectable by HPAEC. Sucrose, glucose, fructose, α-L-Rhap-OMe (acceptor) and its derivatives (glucosylation products) were quantified by HPLC, as previously described.

[3] = Determination of kinetic parameters (catalytic efficiency) of ASNPwt and I228Y; conditions: for activation in the presence of α-L-RhapO-Me: increasing concentration of acceptor, FIG. 7D(b), 7E
Experimental: Catalytic efficiency (Eff=kcat/KM) of ASNPwt and I228Y variant were determined with both sucrose (D=Donor) and methyl α-L-rhamnopyranoside (A=Acceptor) as variable substrates. For the determination of the catalytic efficiency for D, A was held constant at 250 mM and D was varied between 0 and 600 mM. For the determination of the catalytic efficiency for A, D was held constant at 250 mM and A was varied between 0 and 500 mM. Experiments were performed until A and D solubility limits were reached. For each experiment, two distinct reaction velocities were determined: (1) the donor consumption determined by the release of fructose (called Vi (F)), corresponding to the overall kinetics of the different reactions described in FIG. 3 and (2) the acceptor glucosylation determined by the formation of α-D-Glcp-(1→3)-α-L-RhapOMe (called Vi(Dp2)), corresponding to the kinetics of the reaction of interest.
Initial velocities were fitted to the Michaelis-Menten equation using Sigma-Plot. As saturation was not achieved with the mutant, efficiency was calculated by linear regression analysis of the velocity versus substrate concentration plot. Aliquots (200 μL) were removed between 0 and 60 min (at which time product formation was still linear with respect to time), heated at 95° C. for 5 min and centrifuged at 18 000 g for 5 min. The final mixtures were filtered on a 0.22 μm membrane and analyzed using HPLC material previously described. HPLC analyses were performed using two columns: 1) a Biorad HPLC Carbohydrate Analysis column (HPX-87H column (300×7.8 mm)) maintained at 30° C., using ultra-pure water as eluent with a flow rate of 0.6 mL/min; 2) a reversed phase analytical column (Synergi C18RPFusion, 4 μm, 30×4.6 mm) kept at room temperature, with 1 ml/min of ultra-pure water as eluent. HPX-87H column was used to determine the released fructose by RI detection. C18RPfusion column was used to detect the formation of α-D-Glcp-(1→3)-α-L-RhapOMe.

[4] = Enzymatic glucosylation of L-Rhap by 1G5A mutants; conditions: sucrose donor and L-Rhap acceptor 1:1, 146 mM
Experimental: (§1) The enzymatic reaction was carried out using sucrose as donor and rhamnose derivative as acceptor in a 1:1 ratio (146 mM for L-Rhap, 50 mM for α-L-Rhap-OAll).
(§2) Efficiency of the glucosylation reaction was evaluated by HPLC analysis of the acceptor reaction product synthesized using a reversed phase analytical column (Synergi C18RPFusion, 4 μm, 30×4.6 mm) (when testing L-Rhap) and a Biorad HPLC Carbohydrate Analysis column (HPX-87K column (300×7.8 mm)) when testing α-L-Rhap-OAll. (cf. Example 1/Materials and Methods/Screening of mutant library)

[5] = Enzymatic glucosylation of α-L-Rhap-OAll by 1G5A mutants; conditions: sucrose donor and α-L-Rhap-OAll acceptor 1:1, 50 mM
Experimental: as §1, §2

[6] = 146 mM sucrose supplemented with 146 mM acceptor

Molecule	recognition of α-L-Rhap-OMe as acceptor / ability to form the desired disaccharide [1]	effect of the presence of α-L-RhapO-Me in the reaction medium on the product profile [2, 6]	recognition of α-L-RhapO-Me as an acceptor [2, 6]	activation in the presence of α-L-RhapO-Me [3]	catalytic efficiency ([3]; sucrose constant 250 mM, varied acceptor concentration)	Vi(Dp2) (acceptor glucosylation velocity) ([3]; sucrose constant 250 mM, varied acceptor concentration, FIG. 7E)	glucosylation of L-rhamnose with α-(1→3) linkage [4]	ability to glucosylate α-L-Rhap-OAll [5]	major reaction occurring ([2]; sole presence of sucrose)	highest Dp observed (maltooligosaccharide chains) ([2]; sole presence of sucrose, 146 mM, FIG. 7B)
wild type AS: Wild type glycoside hydrolase: amylosucrase (ASNPwt) 1G5A of sequence SEQ ID NO: 13, from Neisseria polysaccharea (protein, listed as Neisseria polysaccharea) SPNSQYLKTRILDIYTPEQRAGIEKSEDWRQFSRRMDTHFPKLMNELDSVYGNNEALLPMLEMLLAQAWQSYSQRNSSLKDIDIARENNPDWILSNKQVGGVCYVDLFAGDLKGLKDKIPYFQELGLTYLHLMPLFKCPEGKSDGGYAVSSYRDVNPALGTIGDLREVIAALHEAGISAVVDFIFNHTSNEHEWAQRCAAGDPLFDNFYYIFPDRRMPDQYDRTLREIFPDQHPGGFSQLEDGRWVWTTFNSFQWDLNYSNPWVFRAMAGEMLFLANLGVDILRMDAVAFIWKQMGTSCENLPQAHALIRAFNAVMRIAAPAVFFKSEAIVHPDQVVQYIGQDECQIGYNPLQMALLWNTLATREVNLLHQALTYRHNLPEHTAWVNYVRSHDDIGWTFADEDAAYLGISGYDHRQFLNRFFVNRFDGSFARGVPFQYNPSTGDCRVSGTAAALVGLAQDDPHAVDRIKLLYSIALSTGGLPLIYLGDEVGTLNDDDWSQDSNKSDDSRWAHRPRYNEALYAQRNDPSTAAGQIYQDLRHMIAVRQSNPRFDGGRLVTFNTNNKHIIGYIRNNALLAFGNFSEYPQTVTAHTLQAMPFKAHDLIGGKTVSLNQDLTLQPYQVMWLEIA	does not recognize the α-L-RhapO-Me as an acceptor	does not affect the product profile	does not recognize at all α-L-RhapO-Me as an acceptor	no activation	null catalytic efficiency	0	lacks this newly described specific activity	lacks this newly described specific activity		
I228Y: 1G5A (N. polysaccharea amylosucrase, SEQ ID NO: 13) single mutant, isoleucine 228 replaced by tyrosine (protein, listed as Neisseria polysaccharea) SPNSQYLKTRILDIYTPEQRAGIEKSEDWRQFSRRMDTHFPKLMNELDSVYGNNEALLPMLEMLLAQAWQSYSQRNSSLKDIDIARENNPDWILSNKQVGGVCYVDLFAGDLKGLKDKIPYFQELGLTYLHLMPLFKCPEGKSDGGYAVSSYRDVNPALGTIGDLREVIAALHEAGISAVVDFIFNHTSNEHEWAQRCAAGDPLFDNFYYIFPDRRMPDQYDRTLREYFPDQHPGGFSQLEDGRWVWTTFNSFQWDLNYSNPWVFRAMAGEMLFLANLGVDILRMDAVAFIWKQMGTSCENLPQAHALIRAFNAVMRIAAPAVFFKSEAIVHPDQVVQYIGQDECQIGYNPLQMALLWNTLATREVNLLHQALTYRHNLPEHTAWVNYVRSHDDIGWTFADEDAAYLGISGYDHRQFLNRFFVNRFDGSFARGVPFQYNPSTGDCRVSGTAAALVGLAQDDPHAVDRIKLLYSIALSTGGLPLIYLGDEVGTLNDDDWSQDSNKSDDSRWAHRPRYNEALYAQRNDPSTAAGQIYQDLRHMIAVRQSNPRFDGGRLVTFNTNNKHIIGYIRNNALLAFGNFSEYPQTVTAHTLQAMPFKAHDLIGGKTVSLNQDLTLQPYQVMWLEIA			recognizes α-L-RhapO-Me as an acceptor to form in majority a Dp2	clear activation			observed for all mutants except I228Y		Hydrolysis	5
